T1: IL-1R1 on MRC-5 cells (ATCC CCL-171) (human, UniProt P14778 18-569)
T1 sequence (looked up): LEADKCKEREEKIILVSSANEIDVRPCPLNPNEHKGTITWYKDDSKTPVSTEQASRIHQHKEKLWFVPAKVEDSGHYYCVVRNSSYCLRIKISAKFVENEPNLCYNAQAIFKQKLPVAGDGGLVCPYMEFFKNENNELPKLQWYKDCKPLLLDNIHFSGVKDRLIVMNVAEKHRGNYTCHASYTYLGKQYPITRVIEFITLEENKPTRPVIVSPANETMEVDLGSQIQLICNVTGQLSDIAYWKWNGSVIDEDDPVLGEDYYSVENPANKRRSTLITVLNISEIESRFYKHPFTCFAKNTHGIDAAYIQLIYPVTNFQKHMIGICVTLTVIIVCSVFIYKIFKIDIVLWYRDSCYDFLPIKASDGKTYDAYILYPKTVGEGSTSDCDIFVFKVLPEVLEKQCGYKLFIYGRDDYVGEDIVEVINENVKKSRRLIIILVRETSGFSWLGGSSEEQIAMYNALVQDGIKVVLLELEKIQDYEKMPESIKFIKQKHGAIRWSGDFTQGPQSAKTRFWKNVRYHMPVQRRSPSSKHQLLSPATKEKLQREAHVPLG

B1: DOM4-122-6 (other)
VL: DIQMTQSPSSLSASVGDRVTITCRASQWIGRELRWYQQKPGKAPMFLIYHASRLQSGVPSRFSGSGSGTDFTLTISSLQPEDFATYYCQQYHGWPLTFGQGTKVEIKR
B2: DOM4-122-23 (other)
VL: DIQMTQSPSSLSASVGDRVTITCRASQWIGRELRWYQQKPGKAPMFLIYHASRLQRGVPSRFSGSGSGTDFTLTISSLQPEDFATYYCQQYHGWPLTFGQGTKVEIKR
B3: DOM4-129-1 (other)
VL: DIQMTQSPSSLSASVGDRVTITCRASQNIDRELRWYQQKPGKAPMFLIYHASRLQRGVPSRFSGSGSGTDFTLTISSLQPEDFATYYCQQYHDFPLTFGQGTKVEIKR

target: T1, IL-1R1 on MRC-5 cells (ATCC CCL-171); experiment: cell-based or functional assay

Binder	ND50, inhibition of IL-1-induced IL-8 release from MRC-5 cells [nM]
B1	~10
B2	~1
B3	~10

— US20090155283A1 (published 2009)
